Reference: paper PMC12561412, “Aptamer‐Mediated Artificial Synapses for Neuromorphic Modulation of Inflammatory Signaling via Organic Electrochemical Transistor”

Assays:
[1] = molecular target: T1, interleukin-11 (IL-11) (UniProt P20809 22-199); experiment: organic electrochemical transistor, aptamer on Au gate; no noticeable current change; SPR: PBS-P+ pH 7.4, 5% DMSO, CM5 chip, 30 uL/min, 60 s injections, temperature not stated; OECT: PBS 1x pH 7.4 (also albumin, serum), VDS 0.1 V; details: protein: commercial
T1 sequence: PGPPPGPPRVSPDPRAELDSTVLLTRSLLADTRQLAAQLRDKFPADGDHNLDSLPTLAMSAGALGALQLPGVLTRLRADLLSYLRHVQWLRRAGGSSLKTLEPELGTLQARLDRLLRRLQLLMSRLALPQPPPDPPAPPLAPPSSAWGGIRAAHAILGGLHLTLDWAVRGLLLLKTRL

[2] = molecular target: interferon-gamma (IFN-γ) (UniProt P01579 24-161); experiment: as above; details: protein: commercial; chain copies: 2
[3] = molecular target: interleukin-6 (IL-6) (UniProt P05231 30-212); experiment: organic electrochemical transistor, aptamer on Au gate; PBS; linear response 0.5 pM to 50 nM; also in ALB and serum; SPR: PBS-P+ pH 7.4, 5% DMSO, CM5 chip, 30 uL/min, 60 s injections, temperature not stated; OECT: PBS 1x pH 7.4 (also albumin, serum), VDS 0.1 V; details: protein: commercial
Sequence of interleukin-6 (IL-6) (P05231 30-212): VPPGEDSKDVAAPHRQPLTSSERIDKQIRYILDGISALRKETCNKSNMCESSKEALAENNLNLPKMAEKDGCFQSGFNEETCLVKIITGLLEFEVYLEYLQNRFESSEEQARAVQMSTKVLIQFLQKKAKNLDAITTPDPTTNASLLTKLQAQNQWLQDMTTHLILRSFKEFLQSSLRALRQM

Sequence of interferon-gamma (IFN-γ) (P01579 24-161): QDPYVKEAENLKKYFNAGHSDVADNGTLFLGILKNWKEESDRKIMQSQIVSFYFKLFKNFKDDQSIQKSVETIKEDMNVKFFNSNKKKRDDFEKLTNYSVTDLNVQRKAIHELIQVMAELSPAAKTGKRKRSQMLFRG

GGTGGCAGGAGGACTATTTATTTGCTTTTCT (ssDNA, 5' C6 thiol, immobilized on gold via Au-S) [IL-6 aptamer, thiolated, on Au gate]: no binding [1]; no binding [2]; binds [3].
